Data reported in the supplement of paper PMC7877785.
± gives the uncertainty stated by the source.

Assay: self-splicing fitness, log relative to wild type (ln ratio); higher = more splicing; Tetrahymena group I intron in knt gene, E. coli kanamycin selection, DiMSum; sequences stand for … in CUCUCU…GGAGGGAAAAGUUAUCAGGCAUGCACCUGGUAGCUAGUCUUUAAACCAAUAGAUUGCAUCGGUUUAAAAGGCAAGACCGUCAAAUUGCGGGAAAGGGGUCAACAGCCGUUCAGUACCAAGUCUCAGGGGAAACUUUGAGAUGGCCUUGCAAAGGGUAUGGUAAUAAGCUGACGGACAUGGUCCUAACCACGCAGCCAAGUCCUAAGUCAACAGAUCUUCUGUUGAUAUGGAUGCAGUUCACAGACUAAAUGUCGGUCGGGGAAGAUGUAUUCUUCUCAUAAGAUAUAGUCGGACCUCUCCUUAAUGGGAGCUAGCGGAUGAAGUGAUGCAACACUGGAGCCGCUGGGAACUAAUUUGUAUGCGAAAGUAUAUUGAUUAGUUUUGGAGUACUCGUGGUCG
Procedure, shortened: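 Colonies from six replicate transformations of E. coli BL21(DE3) were pooled and amplicon-sequenced on an Illumina HiSeq 2500. The library placed an intron with all eight P1ex-region nucleotides randomised inside the knt kanamycin-resistance gene on pET-22b(+), and cells grew overnight at 37°C or 30°C on LB agar with or without 25 μg/mL kanamycin (plus 100 μg/mL carbenicillin, 50 μM IPTG, 0.2% rhamnose). Fitness is the DiMSum error-weighted combination of wild-type-normalised replicate fold changes, kanamycin versus none.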

Sequence | self-splicing fitness (ln) (30 °C) | self-splicing fitness (ln) (37 °C)
AAAUAGCAAUAUUACGAUAA | -1.51 ± 0.12 | -0.658 ± 0.13
AAAUAGCAAUAUUACGAUAU | -1.21 ± 0.13 | -0.352 ± 0.16
AAAUAGCAAUAUUACGCAGU | -3.79 ± 0.2 | -1.57 ± 0.14
AAAUAGCAAUAUUACGCAUG | -1.27 ± 0.11 | -1.03 ± 0.12
AAAUAGCAAUAUUACGCCAC | -3.22 ± 0.36 | -2.18 ± 0.5
AAAUAGCAAUAUUACGCGUG | -1.11 ± 0.078 | -0.804 ± 0.11
AAAUAGCAAUAUUACGGAAA | -2.87 ± 0.26 | -1.53 ± 0.17
AAAUAGCAAUAUUACGGAAU | -3.69 ± 0.17 | -2.24 ± 0.16
AAAUAGCAAUAUUACGGCGG | -1.48 ± 0.086 | -0.335 ± 0.1
AAAUAGCAAUAUUACGGGGU | -3.27 ± 0.17 | -2.12 ± 0.19
AAAUAGCAAUAUUACGUAAA | -1.61 ± 0.096 | -0.713 ± 0.11
AAAUAGCAAUAUUACGUACC | -0.0895 ± 0.18 | -1.39 ± 0.24
AAAUAGCAAUAUUACGUACG | -1.1 ± 0.11 | -1.16 ± 0.13
AAAUAGCAAUAUUACGUCAA | -2.07 ± 0.17 | -1.8 ± 0.18
AAAUAGCAAUAUUACGUCAG | -2.52 ± 0.12 | -1.41 ± 0.11
AAAUAGCAAUAUUACGUCCG | -1.39 ± 0.16 | 0.00872 ± 0.18
AAAUAGCAAUAUUACGUUGG | -4.2 ± 0.22 | -2.57 ± 0.21
AACAAGCAAUAUUACGAAAC | -3.9 ± 0.23 | -2.33 ± 0.27
AACAAGCAAUAUUACGAAGU | -2.46 ± 0.085 | -1.29 ± 0.099
AACAAGCAAUAUUACGAGCG | -0.912 ± 0.057 | 0.125 ± 0.078
AACAAGCAAUAUUACGAUGA | -0.584 ± 0.072 | -0.801 ± 0.073
AACAAGCAAUAUUACGAUUC | -1.61 ± 0.11 | -0.551 ± 0.12
AACAAGCAAUAUUACGCAUU | -2.01 ± 0.069 | -1.32 ± 0.091
AACAAGCAAUAUUACGCCCG | -0.206 ± 0.11 | -0.347 ± 0.17

Sequence | self-splicing fitness (ln) (30 °C) | self-splicing fitness (ln) (37 °C)
AACAAGCAAUAUUACGCCGU | -1.5 ± 0.096 | -0.696 ± 0.094
AACAAGCAAUAUUACGCGAC | -2.41 ± 0.21 | -1.47 ± 0.21
AACAAGCAAUAUUACGCGUA | -1.13 ± 0.067 | -0.921 ± 0.078
AACAAGCAAUAUUACGCUGA | -1.34 ± 0.087 | -1.01 ± 0.11
AACAAGCAAUAUUACGGAGU | -2.72 ± 0.07 | -1.58 ± 0.078
AACAAGCAAUAUUACGGCAA | -0.882 ± 0.069 | 0.119 ± 0.077
AACAAGCAAUAUUACGGCAC | -0.526 ± 0.067 | -0.265 ± 0.1
AACAAGCAAUAUUACGGUUC | -2.97 ± 0.12 | -2.43 ± 0.12
AACAAGCAAUAUUACGUAAU | -1.98 ± 0.074 | -0.78 ± 0.08
AACAAGCAAUAUUACGUCAA | -1.68 ± 0.094 | -1.59 ± 0.11
AACAAGCAAUAUUACGUCAU | -2.35 ± 0.075 | -1.59 ± 0.082
AACCAGCAAUAUUACGAACG | -1.27 ± 0.08 | -1.25 ± 0.089
AACCAGCAAUAUUACGAAUG | -2.22 ± 0.089 | -1.89 ± 0.083
AACCAGCAAUAUUACGACUC | -0.597 ± 0.053 | -0.327 ± 0.066
AACCAGCAAUAUUACGACUG | -3.11 ± 0.15 | -1.83 ± 0.12
AACCAGCAAUAUUACGAGAC | -3.67 ± 0.39 | -1.71 ± 0.18
AACCAGCAAUAUUACGAGGC | -3.43 ± 0.23 | -2.2 ± 0.18
AACCAGCAAUAUUACGAGUG | -0.0963 ± 0.045 | -0.0773 ± 0.06
AACCAGCAAUAUUACGAUCA | -0.638 ± 0.1 | -0.0996 ± 0.11
AACCAGCAAUAUUACGAUGU | -0.353 ± 0.039 | 0.149 ± 0.054
AACCAGCAAUAUUACGAUUU | 0.157 ± 0.044 | -0.0356 ± 0.058
AACCAGCAAUAUUACGCCGC | -4.1 ± 0.3 | -2.45 ± 0.35
AACCAGCAAUAUUACGCCUC | -0.868 ± 0.13 | -0.399 ± 0.16
